How the values were obtained:
[1] = target: ovalbumin 323-329 peptide (OVA323-339) in the context of I-A(b) (murine) (UniProt P01012)
[2] = target: myelin oligodendrocyte glycoprotein 35-55 peptide (MOG35-55) in the context of I-A(b) (mouse; murine) (UniProt P14434)
[3] = target: myelin oligodendrocyte glycoprotein 35-55 peptide (MOG35-55) in the context of I-A(b) (mouse; murine) (UniProt P14434); remark: listed apart in the source
[4] = target: ovalbumin 323-329 peptide (OVA323-339) in the context of I-A(b) (murine) (UniProt P01012); remark: listed apart in the source

Row | Substance | Cytotoxicity (specific lysis of peptide-pulsed splenocytes, in vitro, 3 days) [1] | Cytotoxicity (specific lysis of peptide-pulsed splenocytes, in vitro, 3 days) [2] | Ratio of MOG/OVA pulsed APC (in vivo cytotoxicity, spleen after 48 hours) (ratio of MOG/OVA pulsed APC) [3] | Ratio of MOG/OVA pulsed APC (in vivo cytotoxicity, spleen after 48 hours) (ratio of MOG/OVA pulsed APC) [4]
1 | 2D2 TCR | 3% | 17% | 0.7 | 
2 | OT-II TCR | 32% | 4% |  | 6.2

Reference: patent publication US20210061875A1
